Data published in KR20160103767A (dated 2016).

T1: 재조합 인간 TFPI (Recombinant human Tissue Factor Pathway Inhibitor, full-form, Cat.No.TFPI-875H, Creative Biomart) (human, UniProt P10646 29-304)
T1 sequence: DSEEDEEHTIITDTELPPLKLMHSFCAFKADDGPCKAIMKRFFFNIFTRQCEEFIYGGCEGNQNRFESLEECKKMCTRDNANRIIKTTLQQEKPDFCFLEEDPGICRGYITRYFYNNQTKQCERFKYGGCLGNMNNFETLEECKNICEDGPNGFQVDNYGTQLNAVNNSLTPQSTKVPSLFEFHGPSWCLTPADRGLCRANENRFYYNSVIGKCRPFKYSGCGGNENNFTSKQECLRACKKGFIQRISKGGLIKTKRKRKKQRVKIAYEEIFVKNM


Biological target: T1, 재조합 인간 TFPI (Recombinant human Tissue …)
Assay: cell-based or functional assay

Binder	FXa activity assay: TFPI inhibition at 10nM antibody, relative to positive control [%]	FXa activity assay: TFPI inhibition at 40nM antibody, relative to positive control [%]	TF/FVIIa/FXa complex assay: TFPI inhibition at 50nM antibody, relative to positive control (no antibody, no TFPI) [%]	TF/FVIIa/FXa complex assay: TFPI inhibition at 100nM antibody, relative to positive control (no antibody, no TFPI) [%]	FXa activity assay: TFPI inhibition (10nM comparison), relative to positive control (mAb2021) [%]	FXa activity assay: TFPI inhibition at 10nM antibody, relative to positive control (mAb2021) [%]	TF/FVIIa/FXa complex assay: TFPI inhibition, relative to positive control (no antibody, no TFPI) [%]
클론 T308 (anti-TFPI chimeric antibody) (antibody, V domains shown) VH: EVKLVESGGGLVKPGGSLKLSCAASGFTFSNYPMSWVRQTPEKRLEWVATISNSGSYTYYPDSVKGRFTISRDNAKNTLYLQMNSLRSEDTAMYYCARQVYGNYEDFDYWGQGTTLTVSS VL: not shown	~64	91	~87	100			
클론 T417 (anti-TFPI chimeric antibody) (antibody, V domains shown) VH: EVHLVESGGDLVKPGGSLKLSCAASGFTFSSYAMSWVRQTPDKRLEWVATITTGGSYTYYPDSVKGRFTISRDNAKNTLYLQMSSLKSEDTAMYYCARQDGNFLMDYWGQGTTVTVSS VL: not shown	72	89	100	100	77	78.4	100
